Numbered stars: 1 amine (or outer) side, 2 acyl side, 3 side chain; on linkers, the order of the positions; unused ones are H or OH. Bridge positions count the residues as written; N and C are the ends. Square brackets hold non-standard residues; d marks the D form. * marks the point of attachment. C20 diacid = O=C(O)CCCCCCCCCCCCCCCCCCC(=O)*; γGlu = O=C(O)[C@H](CCC(=O)[*:2])N[*:1]; Hyp = O=C(O)[C@@H]1C[C@@H](O)CN1; NMeI = CC[C@H](C)[C@H](NC)C(=O)O; Aad = N[C@@H](CCCC(=O)O)C(=O)O; Sar = CNCC(=O)O A value given as a limit tells only on which side of the number the result lay.

This is an account of results in US12616737B2, “Liquid formulations of amylin analogues” (Zealand Pharma A/S, priority 2022, dated 2026).

For data set [1] the following is noted: human trials; cited from earlier work.
A further data set addresses T1, hAMYR3 (Homo sapiens, UniProt P30988).
T1 sequence (P30988 25-474): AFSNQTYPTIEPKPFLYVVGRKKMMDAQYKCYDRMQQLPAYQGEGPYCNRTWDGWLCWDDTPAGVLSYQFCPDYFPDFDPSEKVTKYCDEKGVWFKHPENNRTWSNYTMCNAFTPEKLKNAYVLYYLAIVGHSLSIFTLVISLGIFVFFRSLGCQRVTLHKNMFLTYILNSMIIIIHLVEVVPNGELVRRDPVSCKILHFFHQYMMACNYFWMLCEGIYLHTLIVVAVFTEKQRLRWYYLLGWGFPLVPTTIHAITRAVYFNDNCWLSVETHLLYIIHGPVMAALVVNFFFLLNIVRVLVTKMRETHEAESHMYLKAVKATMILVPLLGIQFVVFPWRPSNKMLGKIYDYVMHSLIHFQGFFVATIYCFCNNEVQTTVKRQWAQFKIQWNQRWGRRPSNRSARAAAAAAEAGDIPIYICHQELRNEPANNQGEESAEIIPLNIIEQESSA
T1 sequence (O60896 24-148 partner): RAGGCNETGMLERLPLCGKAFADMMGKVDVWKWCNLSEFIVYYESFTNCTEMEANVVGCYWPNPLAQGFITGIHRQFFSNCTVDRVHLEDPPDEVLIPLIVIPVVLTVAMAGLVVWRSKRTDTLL
The conditions noted are these: as described in WO 2018/046719; cited from earlier work.

A short description of data set [2]: Physical stability evaluation by ThT-stress test (ASSAY IIId), lag-time of fibril formation. The data set is classed as physicochemical. The conditions noted are these: for ThT lag time: 1 mg/ml CPD 1, 20 mM TRIS, 118 mM NaCl. How it is done:
Physical Stability Evaluation by ThT-Stress Test (ASSAY IIId)
A 1 mM ThT stock solution was prepared and 12 μL was mixed with 288 μL of CPD 1 formulation. Samples were loaded in a 96-well black fluorescence plate (clear bottom) in duplicate 2×150 μL. Data were collected in a Fluorescence Plate reader from Biotek Synergy™ H4 Hybrid Multi-Mode at fixed intervals of 10 min, each preceded by 300 s of auto mixing (agitation), over a period of up to 60 hours at 40° C. Physical stability, expressed as lag-time of fibril formation (in hours), was defined as the intersection between two linear regressions representing the initial stable phase and the growth phase.
Physical stability was evaluated in terms of fibril formation by ThT-stress test measured over 60 hours at 40° C. Initial peptide particle size (z-average) was also determined by DLS.

A short description of data set [3]: Dynamic light scattering (DLS) (ASSAY IIIc), peptide particle size. The conditions noted are these: initial z-average by DLS, 1 mg/ml CPD 1, 20 mM TRIS, 118 mM NaCl. In kind it is physicochemical. How it is done: Dynamic Light Scattering (DLS) (ASSAY IIIc)
Peptide particle size distribution was determined with dynamic light scattering analysis. The standard DLS experiment is conducted in a nunc 96 well plate with a sample volume of 165 μL and measured in a DynaPro Plate reader II instrument. Typically used parameters were temperature at 25° C., acquisition time 2 s, 50 acquisitions per sample, Detection: Hydrodynamic radius Rh, Correlation function cut off [μs]: […] and Peak radius cut off [nm]: 0.5-1000.

A further data set is described as follows: pI of the peptide. In kind it is physicochemical.
The nature of data set [4]: Solubility test: CPD 1 dissolved in alkaline MQW by stirring, visual control. In kind it is physicochemical. The conditions noted are these: in MQW (alkaline, NaOH). The method, then:
To test solubility, CPD 1 was dissolved in alkaline MQW (pH adjusted with NaOH) by stirring.

The target in the next data set is hAMYR1 (Homo sapiens, UniProt P30988). The conditions noted are these: as described in WO 2018/046719; cited from earlier work.
For the next data set, the target named is hAMYR2 (Homo sapiens, UniProt P30988). The conditions noted are these: as described in WO 2018/046719; cited from earlier work.
hAMYR2, sequence (O60895 43-175 partner, one chain of several): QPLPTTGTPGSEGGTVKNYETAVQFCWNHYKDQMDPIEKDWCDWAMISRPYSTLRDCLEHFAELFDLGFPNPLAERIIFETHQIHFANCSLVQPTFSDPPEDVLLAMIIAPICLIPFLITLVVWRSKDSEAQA

hAMYR1, sequence (O60894 27-148 partner, one chain of several): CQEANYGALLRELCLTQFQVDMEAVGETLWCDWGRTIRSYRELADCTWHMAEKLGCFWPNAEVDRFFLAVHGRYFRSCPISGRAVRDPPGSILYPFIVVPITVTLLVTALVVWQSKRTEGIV

As for `CC[C@H](C)[C@H](NC(=O)[C@@H]1CCCN1C(=O)CNC(=O)[C@H](Cc1ccccc1)NC(=O)[C@H](CC(N)=O)NC(=O)[C@H](CC(N)=O)NC(=O)[C@H](CO)NC(=O)[C@H](CO)NC(=O)[C@H](Cc1c[nH]cn1)NC(=O)[C@@H](NC(=O)[C@H](CC(C)C)NC(=O)[C@H](Cc1ccccc1)NC(=O)[C@H](CC(N)=O)NC(=O)[C@H](C)NC(=O)[C@H](CC(C)C)NC(=O)[C@H](CCCNC(=N)N)NC(=O)[C@H](CCC(N)=O)NC(=O)[C@@H](NC(=O)[C@H](C)NC(=O)[C@@H]1CSSC[C@H](NC(=O)[C@@H](N)CCCCN)C(=O)N[C@@H](CC(N)=O)C(=O)N[C@@H]([C@@H](C)O)C(=O)N[C@@H](C)C(=O)N[C@@H]([C@@H](C)O)C(=O)N1)[C@@H](C)O)C(C)C)C(=O)N[C@@H](CC(C)C)C(=O)N1CCC[C@H]1C(=O)N1CCC[C@H]1C(=O)N[C@H](C(=O)N[C@@H](CC(N)=O)C(=O)N[C@H](C(=O)NCC(=O)N[C@@H](CO)C(=O)N[C@@H](CC(N)=O)C(=O)N[C@H](C(=O)N[C@@H](Cc1ccc(O)cc1)C(N)=O)[C@@H](C)O)C(C)C)[C@@H](C)O` [pramlintide], the “effect on body weight” value in data set [1] is listed as “reduce body weight or reduce weight gain”.
For “[19CD]-isoGlu-RD( )GTATK( )ATERLA-Aad-FLQRSSF-Gly(Me)-A-Ile(Me)-LSSTEVGSNT-Hyp-NH2 ({C20 diacid}-[γGlu]RDGTATKATERLA[Aad]FLQRSSF[Sar]A[NMeI]LSSTEVGSNT[Hyp]-NH2; lactam 3-8) [CPD 1]”, the “agonist activity at hAMYR3” value with hAMYR3 is on record as “agonist activity”. Besides, the “ThT lag time” value is recorded as greater than 60 h in data set [2] (pH 5.8, ThT-stress test over 60 hours at 40° C.); greater than 60 h in data set [2] (pH 6.0, over 60 hours at 40° C.); greater than 60 h in data set [2] (pH 6.3, over 60 hours at 40° C.); greater than 60 h in data set [2] (pH 6.6, over 60 hours at 40° C.); greater than 60 h in data set [2] (pH 6.8, over 60 hours at 40° C.); greater than 60 h in data set [2] (pH 7.0, over 60 hours at 40° C.). Moreover, in data set [2] (pH range 5.8-7.0, ThT-stress test and DLS (Table 3)), the “stability towards fibrillation and aggregation” value is “stable towards fibrillation and aggregation impacting peptide particle size”. Also, the “Peptide particle size (nm)” value in data set [3] (pH 5.8) was 3.3 nm; in data set [3] (pH 6.0) it was 4.0 nm; in data set [3] (pH 6.3) it was 3.2 nm; in data set [3] (pH 6.6) it was 3.0 nm; in data set [3] (pH 6.8), 3.7 nm; in data set [3] (pH 7.0) it was 3.0 nm. Moreover, in the data set “pI of the peptide”, the “pI of the peptide” value came to 4.36. In addition, in data set [4], the “Concentration at which CPD 1 could be dissolved to a clear solution” value is “up to 50 mg/ml”. In addition, in the data set with hAMYR1, the “agonist activity at hAMYR1” value was “agonist activity”. Also, the “agonist activity at hAMYR2” value with hAMYR2 is “agonist activity”.
